One substance from patent US8716556 can be followed below.

For this data set, the target named is MYB96 (Arabidopsis thaliana) (UniProt Q24JK1). The data set can be described thus: cell_activity. The note with it: GUS reporter activation in Arabidopsis protoplasts.
Chain of UniProt Q24JK1 (Q24JK1 whole entry): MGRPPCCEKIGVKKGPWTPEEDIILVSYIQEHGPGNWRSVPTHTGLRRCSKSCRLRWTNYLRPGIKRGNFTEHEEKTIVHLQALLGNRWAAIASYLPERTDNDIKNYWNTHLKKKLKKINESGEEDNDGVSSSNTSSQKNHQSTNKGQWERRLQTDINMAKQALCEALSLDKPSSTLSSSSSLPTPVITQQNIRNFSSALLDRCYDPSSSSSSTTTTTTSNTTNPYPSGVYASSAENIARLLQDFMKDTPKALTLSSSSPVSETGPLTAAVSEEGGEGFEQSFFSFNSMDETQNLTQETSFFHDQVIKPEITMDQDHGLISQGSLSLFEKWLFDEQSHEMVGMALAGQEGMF

With KCS1-BS in pKCS-P reporter, the activity is above 6 fold.
